Assay results taken from patent publication US20080187528A1 (FUNCTIONAL GENETICS, published 2008).

Assays:
[1] = target: T1, truncated (31-326) Ebola VP40 (Ebola virus (EBOV), UniProt Q05128 31-326); assay: Far Western
T1 sequence: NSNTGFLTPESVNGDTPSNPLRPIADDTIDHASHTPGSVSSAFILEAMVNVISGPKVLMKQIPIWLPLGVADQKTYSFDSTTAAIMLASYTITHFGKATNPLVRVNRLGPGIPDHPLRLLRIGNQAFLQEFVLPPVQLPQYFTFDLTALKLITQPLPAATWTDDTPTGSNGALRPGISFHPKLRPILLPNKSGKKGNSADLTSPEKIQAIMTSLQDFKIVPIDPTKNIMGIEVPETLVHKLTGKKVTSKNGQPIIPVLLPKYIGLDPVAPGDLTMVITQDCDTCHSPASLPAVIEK

[2] = target: biotinylated peptide Bio-… containing 11 amino acid residues from the N terminus of the Ebola VP40 (Ebola virus (EBOV))

B1: purified TSG101 protein that contains only the UEV domain (other)
chain: AVSESQLKKMVSKYKYRDLTVRETVNVITLYKDLKPVLDSYVFNDGSSRELMNLTGTIPVPYRGNTYNIPICLWLLDTYPYNPPICFVKPTSSMTIKTGKHVDANGKIYLPYLHEWKHPQSDLLGLIQVMIVVFGDEPPVFSRP
For B1, the binding result [1] was “no binding” and the Kd [2] was 2000 nM.
